According to patent US20030027766A1 (University of Texas, published 2003):
Each block holds one molecule with its values, some of them ahead of it.

Columns and labels:
HLA-A2 [1] = molecular target: T1, HLA-A2 (human); test: immunofluorescence staining of ovarian tumor OVA-14
T1 construct: allele written as A*02:01 on that basis; also called HLA-A2.1; A2.1

HLA-A2 [2] = molecular target: T1, HLA-A2; test: immunofluorescence staining of ovarian tumor OVA-16
HLA-A2 [3] = molecular target: T1, HLA-A2; test: HLA-A2 stabilization on T2 cells, against D113
[4] = molecular target: certain MHC Class I heavy chains other than HLA-A2; test: cell-based or functional assay
HLA-A2 [5] = molecular target: T1, HLA-A2; test: HLA-A2 stabilization on T2 cells

Molecule: GLYQGCQVV (Synthetic analog) [D115 = HER-2:48-56(48H->G)]
binding result (HLA-A2 [3]): binds

Molecule: RFRELIIEFSRMAR [C44 (analog of HER-2:968-981, VS->II)]
inhibition of lysis of OVA-1 tumor (HLA-A2 negative) by autologous CTL-1 after pre-pulsing with peptide [4]: 25%

Molecule: RFRELVSEFSRMAR [C43 (HER-2:968-981)]
inhibition of lysis of OVA-1 tumor (HLA-A2 negative) by autologous CTL-1 after pre-pulsing with peptide [4]: 45%

Results, then the molecule that gave them:

% HLA-A2 positive cells (HLA-A2 [1]): 92.1%
mean fluorescence (HLA-A2 [1]): 49
% HLA-A2 positive cells (HLA-A2 [2]): 85.3%
mean fluorescence (HLA-A2 [2]): 42
Molecule: mAb MA2.1 (anti-HLA-A2) (antibody)

binding result (HLA-A2 [5]): binds
Molecule: ELVSEFSRV (Synthetic analog of C85) [C84 (HER-2:971-979(Val))]

binding result (HLA-A2 [3]): binds
Molecule: RLLYQGCQVV (Synthetic analog) [D114 = HER-2:47-56(48H->L)]

binding result (HLA-A2 [5]): binds
Molecule: ELVSEVSKV [C81 (analog of HER-2:971-979, F->V, RM->KV)]
